Reference: patent publication US20210147558A1 (OSE IMMUNOTHERAPEUTICS, published 2021)

Molecular target: T1, human CMKLR1 (Chemokine-like receptor 1) (human, UniProt Q99788 1-373)
T1 sequence: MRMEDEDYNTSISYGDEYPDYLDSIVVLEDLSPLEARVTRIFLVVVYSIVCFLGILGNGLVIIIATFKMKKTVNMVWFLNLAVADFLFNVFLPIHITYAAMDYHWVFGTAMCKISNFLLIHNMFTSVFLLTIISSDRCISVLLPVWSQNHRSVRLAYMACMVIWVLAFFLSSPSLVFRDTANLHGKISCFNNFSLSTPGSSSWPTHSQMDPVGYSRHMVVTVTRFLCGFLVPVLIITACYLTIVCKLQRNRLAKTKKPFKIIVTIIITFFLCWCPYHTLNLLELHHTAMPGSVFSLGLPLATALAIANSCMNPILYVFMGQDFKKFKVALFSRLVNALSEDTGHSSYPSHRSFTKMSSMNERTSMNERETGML
Experiment: cell-based or functional assay

IC50 (read off the curve) of the partial decrease (about one fifth); 2G1 with chemerin 6 nM (circles), beta-arrestin recruitment, CHO-K1 CMKLR1 cells: ~10 nM
IC50 (read off the curve) of the partial decrease (about one third); 2G1 with chemerin 2 nM (diamonds), beta-arrestin recruitment, CHO-K1 CMKLR1 cells: ~20 nM
B1: anti-CMKLR1 antibody clone 2G1 (antibody, V domains shown)
VH: EVQLVASGGGLVQPGGSLKLSCAASGFTFSSYGMSWVRQTPDRRLELVATINRYGGSTYYPDSVKGRFTISRDNAKNTLYLQMSSLKSEDTAMYYCPRLIYYGNEGDSWGQGTTLTVSS
VL: QIVLTQSPAIMSASPGEKVTMTCSASSSVSFMHWYQQKSGTSPKRWIYDTTKLTSGVPARFSGSGSGTFYSLTISSMEAEDAATYYCQQWNSKPPLTFGPGTKLELKR
